# Data taken from the DeepSol protein solubility set.
# Assay: soluble on expression in E. coli; label from the status in PepcDB or PDB records
row,Sequence,soluble on expression in E. coli
1,MKIAIPKERRPGEDRVAISPEVVKKLVGLGFEVIVEQGAGVGASITDDALTAAGATIASTAAQALSQADVVWKVQRPMTAEEGTDEVALIKEGAVLMCHLGALTNRPVVEALTKRKITAYAMELMPRISRANSMDILSSQSNLAGYRAVIDGAYEFARAFPMMMTAAGTVPPARVLVFGVGVAGLQAIATAKRLGAVVMATDVRAATKEQVESLGGKFITVDDEAMKTAETAGGYAKEMGEEFRKKQAEAVLKELVKTDIAITTALIPGKPAPVLITEEMVTKMKPGSVIIDLAVEAGGNCPLSEPGKIVVKHGVKIVGHTNVPSRVAADASPLFAKNLLNFLTPHVDKDTKTLVMKLEDETVSGTCVTRDGAIVHPALTGQGA,soluble
2,MKIALMMENSQASKNAIIYNELSAVANEKGFPVFNVGMCDENDHHLTYIHLGIMASILLNANAVDFVVTGCGTGQGALMSLNIHPGVICGYCIDPADAFLFAQINNGNALSLPFAKGFGWGAELNVRFIFEKAFTGRKGEGYPPERKAPQVRNAGILNQVKAAVVKENYLDTLRAIDPELVKTAVSGPRFQQCLFENGQNKEIEAFVREMLG,not soluble
3,MKIALSFLFLTSTFSNAGKIGRLQSVAVSGQLNCLGKPAVGVRIDLMESDNNGEETGIIDDNDFMGYTYTDSAGFFNMSGSEVEISGIEPYVNIFHKCNDGLSPCQRQLRVDIPKSATASGPAPNETFSIGTLELSSRKVIGERRSCAYRNLTQTS,not soluble
4,MKIAVVGCDGFGKVHLRAMRNISGIEYYVFSRNEEKARECMKEFNAEGYFTRYEDVIKSNVDIVDLLVSHDQHYPMGVMAMKAGKHLMLEKPIARTIEEAMGLINTSKDTKRKFMVLEQFYFESSVRKAKELLPRLGNLSLIIVRSIHLYQ,not soluble
5,MKICLQAGAVKQIENYFSISTDGVEIRIWFLTDSVVRIRAGFDGDFVEESYSLVTTAWEDRMDMFMKHYRKRIQTAEAQLTDGLEKAVIQGKVLRVEVEKNPFRICVYDAENTQIHADIVDLAYMEDSNNRRIHTSEITEDDCFY,not soluble
6,MKIDLNADLGEGCASDAELLTLVSSANIACGFHAGDAQIMQACVREAIKNGVAIGAHPSFPDRENFGRSAMQLPPETVYAQTLYQIGALATIARAQGGVMRHVKPHGMLYNQAAKEAQLADAIARAVYACDPALILVGLAGSELIRAGKQYGLTTREEVFADRGYQADGSLVPRSQSGALIENEEQALAQTLEMVQHGRVKSITGEWATVAAQTVCLHGDGEHALAFARRLRSAFAEKGIVVAALEHHHHHH,soluble
7,MKIEVVSALPHSTVHSAVLSRRHRSVICAGPYEVLPLEGCSEPLPSTSTLSELPIECLRLSTDERTIGAATNAILKVADIITGHEVRNLTGHTLPITSLAASKFNPYCWYTGSSDCDWTQWDTRMNPSKIFGSKTPGVVRSIALSPGDRYVAVGTDETIQIFDARQREFIKTFNCSGHALELHPSDVLLSSVGHDRIVRFFCLETFEMISQSDPFLDDIQASAFDTHVMIAATNDSINLLTWEPCCDILTTVPLKNVEKVVNVNANGLDLDFICIGDNTERLEMRTYAIEELLSYSPSHELCGSIYEEDEDVDNSPIDEVKALPELTELSNLPPRSPGLSCEETETSASPVNSSSSHSSPTSPVKPAPVKHRSASQKLPGKSTKTLNPKPAGSTRSVTPVSTKPPRTFGTAKSVIVSSKPSLSGYNNRANPSPSMSDLRTTKSMAGSTTSLLSERAPKKRSTSSRRNQEPITITYIGRPRTPSEGDVASTVSSSTSRNRRPSPSVAKKTSPPSIYAITSSPAKRASSTASGPTARRQNSTSSVTSTTSAKTPVGVWGACIETVHDIGIVAKKENRNIRRLKMLTSRRTSNVDIPPEVCSDEQLVLTATRILSRRNDWSLNSCHAYLPVIIDNIASVDVTNRAIALEGLAAIADTLGERLVKFASMNSHRIGVDVAAEERAEKAKACVQHLRSLVKKRDWYYKQLDEPSILKLDPILELLKKI,not soluble
8,MKIGIIGAGLGGLLSGAILSKEHSITIYEKLPFVGGRFTNIPYKGFQLTTGALHMIPHGNEGYLAQTLRRAGSNVKIVNSEPDGYFRINGKNHEYKDIFGLVSAKDKLKALKLAASLKLGKIDKNMPFGEFLEDIPLALDVGNSFSGWALSLNAYDTPMSEIIEISKLYHKFGGPGIPVGGCKGVIDSLVEIINKNGGKIYTSHAIEKIEVEENNVFLDSEQFDIVISNASPKLTEKMSNIKFIEKEPVPSKGIKINVASKLSLVDGASVIFTTDCERINGLNQPSNVDRSLAKEDYNLIMLHATQIKNNTKEEISLALNDIESLFGGKDYEVISIQSYGNGWPVNHASNGTDLNPIVKDNLLLVGDGVKGVGGIEVEGVAMSVIAVLNHIEKLKK,soluble
9,MKIGIIGATGKAGSRILKEALDRGHEVTAIVRNAAKITEENVKVLEKDVFSLTSNDLQAFDVVVNAFGAPAGHDHLHVDAGNVLIEAMKGAPNTKLVVVGGAGSLFVDEEKTTRVFETPGFPEEYLATAQNQGKNLEILQQTNDITWTFISPSALFALGKRTGSYKAGKDNLLVNAKGDSYVSYEDFAVAALDEIENPKHVNERFTVVSEAELEHHHHHH,soluble
10,MKIGIVTGIPGVGKSTVLAKVKEILDNQGINNKIINYGDFMLATALKLGYAKDRDEMRKLSVEKQKKLQIDAAKGIAEEARAGGEGYLFIDTHAVIRTPSGYLPGLPSYVITEINPSVIFLLEADPKIILSRQKRDTTRNRNDYSDESVILETINFARYAATASAVLAGSTVKVIVNVEGDPSIAANEIIRSMK,soluble
11,MKIHHIGPMGVNPYQRQLAKTERLAAEKAPRDQVEISKEAKELQEAASWEQARQAKLEELRQQIENGAYQVDPRAVAKRMIEYYRNHR,not soluble
12,MKIIDCRNMACPAPVVTTKRALEEAGGETVQVLVDPGAPRENVIRFAENRGFAVSEVEADNGFALTITSPGSAPVEPVRTVAGKGGKTVMLVASDRLGDGPEELGRLLMKNFIITLLDLAELPDRMLFVNTGVLLTTEGSEVLEALQSLGNRGVEVLSCGVCLDFFHRKEKLVAGSVTNMFTIAESLLGAGSVVRLLEHHHHHH,soluble
13,MKIIKGAFPVLITPMDEFQEINWNGVKQNVNYFIEQKVAGIIINGSTGEFVSLSKEERFKMVETVLKEVNGRIPVIVGTAAETTKETIEFTKHAETHGADCALIINSYYCKPKEEEIYFHFKEISNAVNIPIMLYNNPFTSGVDMSTELMLRIGKDCENVTHIKESSGDIRKARDLVRQGEGAFQVFCGSEDLVMESYLVGATGWVSVAGNVVPGLVTKMYEHFQNGELEKAWEINDAILPLCEFLEGSGKYVQIVKRSMELQGQAGGPSRYPRLGLTEEEDQKLQAIISKIAAHAAV,not soluble
14,MKIKTRFAPSPTGYLHVGGARTALYSWLFARNHGGEFVLRIEDTDLERSTPEAIEAIMDGMNWLSLEWDEGPYYQTKRFDRYNAVIDQMLEEGTAYKCYCSKERLEALREEQMAKGEKPRYDGRCRHSHEHHADDEPCVVRFANPQEGSVVFDDQIRGPIEFSNQELDDLIIRRTDGSPTYNFCVVVDDWDMEITHVIRGEDHINNTPRQINILKALKAPVPVYAHVSMINGDDGKKLSKRHGAVSVMQYRDDGYLPEALLNYLVRLGWSHGDQEIFTREEMIKYFTLNAVSKSASAFNTDKLLWLNHHYINALPPEYVATHLQWHIEQENIDTRNGPQLADLVKLLGERCKTLKEMAQSCRYFYEDFAEFDADAAKKHLRPVARQPLEVVRDKLAAITDWTAENVHHAIQATADELEVGMGKVGMPLRVAVTGAGQSPALDVTVHAIGKTRSIERINKALDFIAERENQQ,soluble
15,MKILLFICGEGLGHTGRCLALGKEFLAAGHEVNFGAYGYSKGLVQKTGYSAYEIPSEIKLAGEAGTFDIRKSIKETLNNLSPSGFRKILRLIEKLDPDVVLSDGYYTGILAAQKRKVPVYFIGHQFNMEEFFWKKGLFAGIAGIFVKRFYNYVFSSVDGIIVPDYPLPYSVNRKNFTISRAVNDNIFFSGPLIRCRYQEAGEKAFKRPNVLSTIGAFGYRAAVFRNVLEAAKLDPSIYYTFISGPEIDPEQFSKVPENVEFTGFTENPFPYYKGSDLVITAGGHGTIMESLAFGLPILSFPDEKHAEQENNASVLEEAGYGKRMSYLTPPEVILACIREIFEDENYSKKTRRLMELAEVLDGPAAVRKFLEEKHRGLEHHHHHH,not soluble
16,MKILLVFDFDNTIIDDNSDTWIVQCAPNKKLPIELRDSYRKGFWTEFMGRVFKYLGDKGVREHEMKRAVTSLPFTPGMVELFNFIRKNKDKFDCIIISDSNSVFIDWVLEAASFHDIFDKVFTNPAAFNSNGHLTVENYHTHSCNRCPKNLCKKVVLIEFVDKQLQQGVNYTQIVYIGDGGNDVCPVTFLKNDDVAMPRKGYTLQKTLSRMSQNLEPMEYSVVVWSSGVDIISHLQFLIKD,not soluble
17,MKILYIVLDGAADSPTSPRKTLEEASKPNIDSLGSHAVCGMVYTVKPGVAPQSDYATLSLLGYNPDEYYPGRGPLEAFGAGIEMRRGDIALRANFATVDPGTLRIIDRRVGRSLTSREARELASAVDGMELEDGEGTALFRATIGHRGVLVLRHRSKPLSDAISNTDPAYERRGRFSVALEKYEPFIKLSNPLVEDEAAVLAARMLNEFTLKAVEILDSHPVNLAREKRGLLKANAILSRDAGGLPEEKPPSFQERFGLRGASIVEMVVERGISRYIGLDDIRVEIEGRAREEVYREEAARAVEALETHDLVYVHLKGPDEPGHDGSFEGKIRAVEDIDKHFFAPLLDRLSSAGLEPAFVVTSDHATPWDVGAHSGDPVPLMISHQSIQ,not soluble
18,MKINWTEVKEKIRPQISKPSYETWFTNTTVYLEDDILTIYCPNEFARDWLESHYKELVFNTLREMFNTTFEIQFDLCNGEPSNLKDVQKEKLSSWDEVKKALRPKIAEKTFMTWIRNTNATIKDNKVIIFCEDAFHRDLLEGEYKNIISSTVQKITDEEYQIWFEIESSATSNAQVHHVKNNQRTSGQEESKTIWNKIKDKIQLKISRPSYETWVKETTARINEDSLIIYFENEFQQEWVKKSYKDLISQIAKELTGNTYEIQFELKSNTTSNNEKSTIKDITSELGEQFKVSNNSLKYNDVDESNKRIRALEEKIMNLEKVIGTLVEKLDAVELKTQLEKLEHHHHHH,not soluble
19,MKIRVADEKELPMILQFLTEVKAYMDVVGITQWTKDYPSQGDIQEDITKKRLYLLVHEEMIFSMATFCMEQEQDFVWLKRFATSPNYIAKGYGSLLFHELEKRAVWEGRRKMYAQTNHTNHRMIRFFESKGFTKIHESLQMNRLDFGSFYLYVKELENQSIV,soluble
20,MKITLIIPTYNAGSLWPNVLDAIKQQTIYPDKLIVIDSGSKDETVPLASDLKNISIFNIDSKDFNHGGTRNLAVAKTLDADVIIFLTQDAILADSDAIKNLVYYFSDPLIAAVCGRQLPHKDANPLAVHARNFNYSSKSIVKSKADIEKLGIKTVFMSNSFAAYRRSVFEELSGFPEHTILAEDMFMAAKMIQAGYKVAYCAEAVVRHSHNYTPREEFQRYFDTGVFHACSPWIQRDFGGAGGEGFRFVKSEIQFLLKNAPFWIPRALLTTFAKFLGYKLGKHWQSLPLSTCRYFSMYKSYWNNIQYSSSKEIKLEHHHHHH,soluble
21,MKITTEALRWWEDGETVGGRDLVGGGTWLGCTRHGRLAFLTNFKEASSFPAAKSRGDLPLRYLQSEKSPAEFAEEIQDEISLYNGFNLVVAHVLSKSMIYITNRPPHGDKLVTQVSPGIHVLSNANLDSPWPKVNSPNCVFLSLQCLRLREGFQQLLAENGSGEFPVKTMVEEVMTNTVKDEETELPHVFTPETEYHLSSIFVDMQRPTGRYGTRSISAIIVKSHGDGGGDGEICFYERHLEEGDSWKEHTQQFVIIQNQSI,soluble
22,MKIVGIYLAAGKSRRTGPGLHKLYLPTGNTLLGNKALHTSLSSNLSDVIVVSNQPSWLLHYTQVERVHILSCEKSCLGQSYSLHCGLEKAESMNADGVVVMLADQPFITVKLLNSLIDSYEHLPQLDYVAASFQGIPQPPILFSKGIFPSLKKLKGDQGARSIFFDKSFQGKITVYSDAKLFYDVNTIEDYNVIKNSLLLEHHHHHH,not soluble
